Laboratory results from patent publication US10400009B2, “β-sheet breaker peptide used for preventing and/or treating alzheimer's disease” (TIANJIN MEDICAL UNIVERSITY, priority 2014, dated 2019).
Ends that are not written are not given here.

How the values were obtained:
Aβ1-42 [1] = biological target: T1, Aβ1-42 (Homo sapiens, UniProt P05067); experiment: FT-IR spectrometry of Aβ1-42 secondary structure (β-sheet); type: biochemical; details: co-incubation with Aβ1-42 at 37° C. for 72 h
T1 construct: purchased Sigma, Inc. (US)
Experimental: 1.3 the Inhibition Effect of HPYD on Aβ1-42 Aggregation was Observed by FT-IR Spectrometry.
22.15 μmol/L Aβ1-42 solution in PBS phosphate buffer was formulated in quadruplicate as described in the above 1.2 section. To two solutions, PBS phosphate buffer was added in equal volume respectively and incubated alone at 37° C. for 30 min (30 min, aging group) and 72 h (72 h, aging group). To the other two solutions, H102 (88.60 μmol/L) and HPYD (88.60 μmol/L) were added in equal volume respectively and co-incubated at 37° C. for 72 h. After incubation, each sample was vacuum lyophilized. Then, 3.5 μg of H102 and 3.7 μg of HPYD were respectively mixed with anhydrous potassium bromide (120-180 mg) thoroughly, and pressurized for 5 min by tablet machine to form potassium bromide tablet. The measurement and analysis were carried out by using Nicolet Magna 760 FT-IR instrument, with a resolution of 4 cm^−1 and a spectrum range of 3500-400 cm^−1. The amide I band spectrum at 1700-1600 cm^−1 was analyzed using Origin 8.0 software. The fitting range was expanded to 1750-1550 cm^−1 due to the complexity of the components in the samples and the effect of vibration peaks close to amide I band on the secondary structure.
In the above-mentioned studies, Aβ1-42 was used as negative control, and H102 was used as positive control.

Aβ1-42 [2] = biological target: T1, Aβ1-42; experiment: ThT fluorescence spectrophotometry of Aβ1-42 aggregation; type: biochemical; details: Aβ1-42 11.07 μmol/L, peptide 44.3 μmol/L, 37° C., 24 h, PBS pH 7.4; x ± S
Experimental: 1.2 the Inhibition Effect of HPYD on Aβ Aggregation was Analyzed by ThT Fluorescence Spectrophotometry.
The degree of Aβ aggregation may be reflected by ThT fluorescence intensity. Aβ1-42 lyophilized powder was formulated in 50 mmol/L PBS phosphate buffer (pH 7.4) to obtain a solution in a concentration of 22.15 μmol/L. The polypeptides H102 and HPYD were also formulated in 50 mmol/L PBS phosphate buffer (pH 7.4) to obtain a solution in a concentration of 88.60 μmol/L. In the experiment, Aβ1-42 was mixed with H102 or HPYD in 1:1 volume ratio to a final concentration of 11.07 μmol/L and 44.3 μmol/L, respectively. […] ThT fluorescence intensity was measured by using VARIAN PTC-Au00-01058 fluorescence spectrophotometer at the excitation wavelength of 453 nm and emission wavelength of 478-486 nm. […]
The fluorescence intensity from the aging group (in which Aβ1-42 lyophilized powder was formulated in 50 mmol/L PBS phosphate buffer (pH 7.4) to obtain a solution in a concentration of 11.07 μmol/L, and the obtained solution was incubated at 37° C. for 24 hours) from which baseline fluorescence intensity was subtracted would be taken as 100%, and the inhibitory rate of the drug on Aβ1-42 in each group was calculated. […]
Inhibitory rate=(the relative fluorescence intensity of 1-β sheet blocking peptide/the relative fluorescence intensity of Aβ1-42)×100%

Aβ [3] = biological target: T2, Aβ (Homo sapiens, UniProt P05067); details: from Chinese patent CN 101531703A; cited from earlier work
Aβ1-42 [4] = biological target: T1, Aβ1-42; experiment: Electron microscopy of Aβ1-42 fiber formation; type: biochemical; details: for Aβ fibers observed by electron microscope: co-incubation with Aβ1-42 for 5 days at 37° C.
Experimental: 1.4 the Inhibition Effect of HPYD on Aβ Aggregation was Observed by Using Electron Microscope. Aβ1-42 solution in PBS phosphate buffer (11.07 μmol/L, 20 μl) was formulated as described in the above 1.2 section, and incubated alone at 37° C. for 5 days. Meanwhile, Aβ1-42 (22.15 μmol/L, 10 μl) was respectively co-incubated with […] or HPYD (88.61 μmol/L, 10 μl) under the same conditions for 5 days. 5 μl sample was taken from each group and dropped on the carbon support film on 300-mesh deionized copper grids, and then kept still at ambient temperature for 15 min. The samples were negatively stained in dark with 2% uranyl acetate for 2 min. After drying, the samples were observed using transmission electron microscope. In the above-mentioned studies, Aβ1-42 was used as negative control, and […] was used as positive control.

[5] = tested on: APP/PS1 double transgenic mice; experiment: Morris Water Maze place navigation test; type: in vivo; details: nasal 33 mg/ml at 5 μl/d, 30 days, n = 7
Experimental: (§1) 1.1 Animals: Fourteen APP/PS1 double transgenic mice were randomized into model group and drug administration group. Seven C57BL/6J mice with the same age and genetic background were used in normal control group. By way of nasal administration, 33 mg/ml HPYD in physiological saline solutions were administered to the mice in drug administration group in a rate of 5 μl/d using drug delivery devices, and the same volume of physiological saline solutions were administered nasally to the mice in normal control group and model group. The detection was performed 30 days after the administration.
(§2) 1.2 Morris Water Maze test: (1) Place Navigation: A platform is placed in a circle within the third quadrant of water maze. Each mouse swims twice (90 s/time) during the same time periods of every day for 5 days. The time required for a mouse's finding and climbing onto the platform, i.e. escape latency, is recorded. If the mouse could not find the platform within 90 s, it is guided to the platform and kept for 20 s. In this case, the escape latency is recorded as 90 s. (2) Spatial Probe: The platform is removed at day 6, and during the same time period, a water entry point is optionally selected for putting a mouse into water. Each mouse swims once (90 s/time). The swim track of the mouse within 90 s, the numbers of leaping over the hidden platform, the original swimming angle after water entry, and so on are recorded for testing the memory ability of the mouse.
1.3 Data processing: The data obtained is expressed in mean±standard deviation (χ±5). Statistical analysis was performed using statistical software SPSS16.0. One-way ANOVA and pairwise comparison were employed. P<0.05 represents that the difference is statistically significant.

[6] = tested on: APP/PS1 double transgenic mice; experiment: Morris Water Maze spatial probe test; type: in vivo; details: 30 days, n = 7
Experimental: as §1
as §2, with “(2) Spatial Probe: The platform is removed at day 6, and during the same time period, a water entry point is optionally selected for putting a mouse into water. Each mouse swims once (90 s/time).” left out, “mouse. […]” for “mouse.”

APP = experiment: Immunohistochemical staining of APP in brains of APP/PS1 double transgenic mice; type: in vivo; details: nasal 33 mg/ml at 5 μl/d, 30 days, n = 7, x ± S
Experimental: as §1, with “control group. These mice were all purchased from the Experimental Animal Research Center of Peking Union Medical College, Chinese Academy of Medical Sciences. By way” for “control group. By way”, “administration group at a rate” for “administration group in a rate”, “detection was carried out 30 days” for “detection was performed 30 days”
(§3) 1.2 Drugs and reagents: Anti-Aβ1-42 antibody was purchased from Chemicon Inc. Anti-APP antibody, ready-to-use SABC Immunohistochemistry Staining Kit, DBA Color Development Kit and 0.1% polylysine were purchased from Wuhan Boster Biological Technology, Ltd. Other reagents have analytical purity.
(§4) 1.3 Immunohistochemical Staining: After Morris Water Maze was carried out in order to determine the learning ability of the experimental mice, the mice were anaesthetized by celiac injection with 0.1 kg/L chloral hydrate at a dose of 4 ml/kg. Rapid intubation was carried out via left ventricle. […]

Aβ [7] = biological target: T2, Aβ; experiment: Immunohistochemical staining of Aβ in brains of APP/PS1 double transgenic mice; type: in vivo; design: from tissue; host or cells: brain (cortex, hippocampus CA1) of APP/PS1 double transgenic mice; details: nasal 33 mg/ml at 5 μl/d, 30 days, n = 7, x ± S
Experimental: as §1, with “control group. These mice were all purchased from the Experimental Animal Research Center of Peking Union Medical College, Chinese Academy of Medical Sciences. By way” for “control group. By way”, “administration group at a rate” for “administration group in a rate”, “detection was carried out 30 days” for “detection was performed 30 days”
as §3, §4

Sequence	transmittance in each wavenumber representing secondary structures, versus Aβ incubated alone for 72 h (Aβ1-42 [1])	Inhibitory rate (%) on Aβ1-42 aggregation (Aβ1-42 [2])	inhibitory rate on Aβ aggregation (Aβ [3])	Aβ fibers observed by electron microscope (Aβ1-42 [4])	content of β-sheet (FT-IR, 1640-1620 cm^−1) (Aβ1-42 [1])	daily mean escape latency ([5]; 1 d)	daily mean escape latency ([5]; 2 d)	daily mean escape latency ([5]; 3 d)	daily mean escape latency ([5]; 4 d)	daily mean escape latency ([5]; 5 d)	numbers of leaping over the hidden platform (numbers) ([6]; day 6, 90 s, nasal 33 mg/ml at 5 μl/d)	Orientation angles (degree) ([6]; day 6, nasal 33 mg/ml at 5 μl/d)	APP ratio of positive cells (%), Cortex (APP)	APP ratio of positive cells (%), Hippocampus CA1 area (APP)	Aβ ratio of positive cells (%), Cortex (Aβ [7])	Aβ ratio of positive cells (%), Hippocampus CA1 area (Aβ [7])	inhibition effect on Aβ aggregation by electron microscopy, compared with H102 (Aβ1-42 [4]; co-incubation with Aβ1-42 for 5 days)
HKQLPFFEED [H102, reference compound]	significantly higher transmittance	14.168 ± 0.038 %	27.84%	Aβ fibers were significantly decreased	–	–	–	–	–	–	–	–	–	–	–	–	–
HKQLPFYEED [HPYD]	significantly higher transmittance	27.013 ± 0.018 %	–	significantly decreased and thinner	lowest	88.127 ± 4.137 s	80.404 ± 15.646 s	67.740 ± 24.389 s	45.950 ± 19.211 s	24.974 ± 9.685 s	2.25 ± 1.258 numbers	40.478 ± 26.533 degree	14.25 ± 3.25 %	12.75 ± 1.83 %	15.85 ± 2.77 %	11.09 ± 2.47 %	stronger inhibition effect on Aβ aggregation than H102
